The values below come from patent US20230167458A1, “FORSKOLIN-INDUCIBLE PROMOTERS AND HYPOXIA-INDUCIBLE PROMOTERS” (ASKLEPIOS BIOPHARMACEUTICAL, INC., priority 2020, published 2023).

The data set has as its system CHO-GS-KSV1 cell line. As to the kind of experiment: SEAP expression in stably transfected CHO-GS-KSV1, forskolin or NKH477 induction. In kind it is cell-based, chinese hamster. The note with it: stable CHO-GS-KSV1, SEAP, forskolin or NKH477. As for the experimental part: The forskolin-inducible promoters were then tested in a stably transfected CHO-GS-KSV1 cell line.
• CD-CHO media (Life technologies, CAT #10743029) • Corning 125 mL Polycarbonate Erlenmeyer Flask with Vent Cap (CAT #734-1885). • Gene Pulser® Electroporation Cuvettes, 0.4 cm gap (BioRad, CAT #165-2088) • Gene Pulser Xcell Total System (BioRad, CAT, #1652660) • GS-vector DNA ([…] in 100 μL TE buffer) linearised with Sca1 • Suspension cultures of CHOK1SV GS-KO host cells.
Cell suspensions of 6×10^5 cells per mL were incubated on an orbital shaker set at 8% CO2, 20% O2, 37° C., 85% relative humidity and 140 rpm overnight. 2.86×10^7 cells were centrifuged at 200 g for 3 minutes. Media was then aspirated and cell pellet resuspended in 2 mL fresh CD-CHO media to obtain a concentration of 1.43×10^7 cells per mL. 700 μL of cell suspension was added to each of two electroporation cuvettes each containing […] of linearised DNA in 100 μL of sterile TE buffer (Thermofisher, 12090015). Each cuvette was electroporated, delivering a single pulse of 300V, […] with resistance to infinity. Immediately after delivery of pulse electroplated cells were transferred to Erlenmeyer 125 mL flask containing 20 mL of CD-CHO media pre-warmed to 37° C. Electroporated cells from two cuvettes are combined into a single 125 mL flask to generate one pool of cells. Cells are cultured on an orbital shaker set at 8% CO2, 20% O2, 37° C., 85% relative humidity and 140 rpm. Cells are transferred to fresh CD-CHO media 24 hours after transfection and cell cultures monitored and given fresh CD-CHO media every 2-4 days. Usually after about 10-14 days cell numbers will be high enough to start passaging.
The transfected DNA was the pXC-17.4 expression vector (Lonza Biologics plc) where one of the promoter constructs (or a control promoter (CMV-IE) have been cloned upstream of the secreted alkaline phosphatase (SEAP) gene, which had been cloned into the multiple cloning site within the vector expression cassette. Promoters were closed into the pXC-17.4 vector using Gibson assembly. The pXC-17.4 expression vector is designed for making stable cell lines in the CHO-GSK1SV cell line as it contains the […] gene which has been knocked out of the cell line. Therefore, selection of cells in glutamine drop-out medium will select for cells that have stably integrated the plasmid.
The responsiveness of the RTV-019 promoter to different concentrations of forskolin and […] was tested in the stably transfected CHO-GS-KSV1 cell line. To this end, the stably transfected CHO-GS cells were seeded at 500,000 cells/ml and allowed to grow for 24 hrs. At this point the cells were induced by addition of the respective concentrations of forskolin and NKH477 and SEAP expression was measured as described below after 24 hours.
The promoter activity and inducibility of FMP-02, FORCYB-001, RTV-017, FORCSV-10, FOR-CMC-009, FLP-01 and RTV-019 were also tested in the stably transfected CHO-GS-KSV1 cell line. To this end, the stably transfected CHO-GS cells were seeded at 500,000 cells/ml and allowed to grow for 24 hrs. At this point the cells were exposed to […] forskolin or […] NKH477 for 24 hours. After this point, the SEAP activity in the medium was assessed as described below.
SEAP Reporter Gene Assay, chemiluminescent (Roche, CAT #11 779 842 001) was used to measure SEAP activity as per the manufacturer's protocol. All reagents and samples were fully pre-equilibrated at room temperature. Culture supernatant was collected from the stably transfected CHO-GS at the specific time points (0 h and 24 h). The supernatant was diluted 1:4 in dilution buffer and heat treated at 65° C. for 30 minutes. The heat-treated sample was then centrifuged for 30 s at maximum speed. 50 μl of the heat-treated sample was then added to 5 μl of inactivation buffer and incubated for 5 min at room temperature. 50 μl of substrate reagent was then added and incubated for 10 min at room temperature. […]

B1: RTV-019: synthetic forskolin-inducible promoter, SEQ ID NO: 44; 3× ATF6, 4× AP1(1) and 3× HRE1 TFBS and CMV-MP (nucleic acid)
DNA: TGACGTGCTGATGATGCGTAGCTAGTAGTTGACGTGCTGATGATGCGTAGCTAGTAGTTGACGTGCTGATGATGCGTAGCTAGTAGTTGAGTCAGATGATGCGTAGCTAGTAGTTGAGTCAGATGATGCGTAGCTAGTAGTTGAGTCAGATGATGCGTAGCTAGTAGTTGAGTCAGATGATGCGTAGCTAGTAGTCTGCACGTAGATGATGCGTAGCTAGTAGTCTGCACGTAGATGATGCGTAGCTAGTAGTCTGCACGTAGATGATGCGTAGCTAGTAGTGCAGTTAGCGTAGCTGAGGTACCGTCGACGATATCGGATCCAGGTCTATATAAGCAGAGCTCGTTTAGTGAACCGTCAGATCGCCTAGATACGCCATCCACGCTGTTTTGACCTCCATAGAAGATCGCCACC
modifications: Synp-RTV-019
notes: 3× ATF6, 4× AP1(1) and 3× HRE1 TFBS and CMV-MP
B1: the “relative rank of promoter strength” value is “strongest”.
